Reference: publication PMC3448794 (Biochemistry, 2012)
One block for each binder: values may come before it.

Columns and labels:
[1] = target: T1, alpha-chain of cleaved human L-asparaginase (hASNase3) (human, UniProt Q7L266 1-167); experiment: crystal structure
T1 sequence (looked up): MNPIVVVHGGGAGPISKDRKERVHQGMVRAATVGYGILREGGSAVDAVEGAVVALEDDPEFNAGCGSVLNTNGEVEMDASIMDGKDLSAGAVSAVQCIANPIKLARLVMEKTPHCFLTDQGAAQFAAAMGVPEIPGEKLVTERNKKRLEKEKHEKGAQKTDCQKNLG

[2] = target: T2, human L-asparaginase (hASNase3), cleaved state (alpha- and beta-chains) (human, UniProt Q7L266 1-167; Q7L266 168-308); experiment: crystal structure
T2 sequence (looked up) 1: T1 sequence (looked up)
T2 sequence (looked up) 2: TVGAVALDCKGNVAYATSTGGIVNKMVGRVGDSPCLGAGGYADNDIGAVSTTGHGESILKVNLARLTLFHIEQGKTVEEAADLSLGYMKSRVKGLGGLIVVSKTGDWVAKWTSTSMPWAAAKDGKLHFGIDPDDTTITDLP

binding result [1]: binds
B1: beta-chain of cleaved human L-asparaginase (hASNase3) (domain or fragment, UniProt Q7L266 168-308, looked up)
chain: T2 sequence (looked up) 2

binding result [2]: binds
B2: human L-asparaginase (hASNase3), uncleaved state (enzyme, UniProt Q7L266 1-308, looked up)
chain: MNPIVVVHGGGAGPISKDRKERVHQGMVRAATVGYGILREGGSAVDAVEGAVVALEDDPEFNAGCGSVLNTNGEVEMDASIMDGKDLSAGAVSAVQCIANPIKLARLVMEKTPHCFLTDQGAAQFAAAMGVPEIPGEKLVTERNKKRLEKEKHEKGAQKTDCQKNLGTVGAVALDCKGNVAYATSTGGIVNKMVGRVGDSPCLGAGGYADNDIGAVSTTGHGESILKVNLARLTLFHIEQGKTVEEAADLSLGYMKSRVKGLGGLIVVSKTGDWVAKWTSTSMPWAAAKDGKLHFGIDPDDTTITDLP
